Reference: patent US20210292381A1

Molecular target: purified MHC
Experiment: competition with radiolabeled known MHC binding peptide for purified MHC

Binder | IC50
LQLQPFDQPRLPWPQ [P1f (modified gluten peptide …)] | 5.44 µM
LQLQPFWQPKLPGPQ [P1g (modified gluten peptide …)] | 11.2 µM
PYPHPRLPYTQPQPF [P3c (modified gluten peptide …)] | 2.99 µM
KLPYPQGRLPGPQPQ [P2g (modified gluten peptide …)] | 3.75 µM

The next binders have a lower IC50 than those just listed; values first:

IC50 | Binder
1.99 µM | PYSQPESPYMQPQPF [P3d (modified gluten peptide …)]
0.879 µM | PYPHPWLRGPQPQPF [P3f (modified gluten peptide …)]
